Measurements published in US8692070B2, “Plants with improved nitrogen utilization and stress tolerance” (Iowa Corn Promotion Board, priority 2009, dated 2014).

Experiments:
Type in all cases: biochemical, Brevibacillus laterosporus
NAGK enzyme [1] = test: NAGK enzyme assay, titration with arginine; details: NAGK 100 ng/mL; for A540 nm: 70 mM NAG, 30 minutes 37° C., no-arginine control 0.284
Protocol: (§1) The NAGK enzyme assay was adapted from the method of Denes (1970). Product formation was quantified using a Spectramax 190 spectrophotometer at 540 nm.
The following master mix for NAGK in vitro enzyme assays was prepared for the purpose of determining the effect of arginine on NAGK enzyme activity: 50 mM Tris; final pH was 5.5;100 mM hydroxylamine (NH2OH); 10 mM MgCl2; 7 mM ATP; 70 mM NAG.
This master mix was subdivided into individual wells in a 96-well plate (200 uL/well final volume), and then varying concentrations of arginine (0.15 mM to 10 mM) were then added to individual wells. The enzyme reactions were then initiated by addition of NAGK enzyme (100 ng/mL). Following 30 minutes of incubation at 37° C., the absorbance of each sample was quantified. A control reaction without arginine was prepared an analyzed alongside.

NAGK enzyme [2] = test: NAGK enzyme assay, titration with NAGK enzyme; details: 70 mM NAG, 1 hour 37° C.; for A540 nm: buffer control (0.040) subtracted
Protocol: NAGK overexpression vector pAX4389 was transformed into electrocompetent E. coli cells (BL21 *DE3, Invitrogen) and single colonies were obtained by selection on the antibiotic kanamycin. An individual colony was then grown in liquid medium (LB broth) until the culture absorbance (at 600 nm) reached 0.6, and then 0.5 mM IPTG was added to induce expression from the T7 promoter. Induction was carried out overnight at 16° C. The following day, the induced culture was centrifuged and the pellet was frozen for two hours at −20° C. After thawing on ice, the pellet was resuspended in […] of lysis buffer (50 mM Hepes, pH 7.0, 50 mM NaCl), treated with Lysozyme (Novagen) at room temperature for 30 minutes, and then sonicated to lyse the cells. Insoluble material was separated from the soluble protein extract through centrifugation. This protein extract was then stored in an ice bucket, and NAGK enzyme assays were prepared a short time later. As a negative control, a control vector was prepared alongside that directed the overexpression of a bacterial EPSPS enzyme in the same base vector (pRSF-1b). This vector was likewise transformed into the same E. coli cell line and a transformant colony was selected for protein overexpression and a protein extract was prepared alongside NAGK.
as §1
A master mix for the NAGK in vitro reaction was prepared with the following components: 50 mM Tris, pH 8.0; final pH of the master mix was 5.5; 100 mM hydroxylamine (NH2OH); 10 mM MgCl2; 7 mM ATP; 70 mM N-acetylglutamate (NAG).
This master mix was subdivided into individual wells in a 96-well plate (200 uL/well final volume), and reactions were then initiated by adding various concentrations of NAGK protein extract into individual sample wells. Following 1 hour of incubation at 37° C., the absorbance of each sample was quantified. The quantity of NAGK protein in the extract was estimated by loading dilutions of the extract on a SDS-polyacrylamide gel alongside known concentrations of a bovine serum albumin standard, and then staining the gel with Coomassie protein stain (Simply Blue, Invitrogen).
By this method, it was observed that addition of NAGK protein extract at concentrations as low as 1 ng/mL generated an absorbance product at 540 nm. The absorbance results from the enzyme product (N-actylglutamyl-5-phosphate) reacting with hydroxylamine to create the absorbent compound N-acetyglutamyl-5-hydroxamate. The graph (FIG. 1) and table (Table 3) show the absorbance at each of 6 different concentrations of NAGK protein. The baseline absorbance generated by a buffer control (A540=0.04) was subtracted from each NAGK absorbance value.

NAGK enzyme [3] = test: NAGK enzyme assay, titration with substrate (NAG); details: 1000 ng/mL NAGK, 1 hour 37° C., no-substrate control (0.041) subtracted
Protocol: as §1
The following master mix for NAGK in vitro enzyme assays was prepared for the purpose of titrating the substrate (NAG) into the reaction: 50 mM Tris; final pH was 5.5; 100 mM hydroxylamine (NH2OH); 10 mM MgCl2; 7 mM ATP; 1000 ng/mL NAGK enzyme (from protein extract).
This master mix was subdivided into individual wells in a 96-well plate (200 uL/well final volume), and reactions were then initiated by adding various concentrations of the substrate NAG into individual sample wells. The NAG concentrations ranged from 1.6 mM up to 100 mM. Following 1 hour of incubation at 37° C., the absorbance of each sample was quantified. A control reaction without substrate was prepared an analyzed alongside.

Molecule `N=C(N)NCCC[C@H](N)C(=O)O` [Arginine, arginine] has an A540 nm (NAGK enzyme [1]; Arginine 0.16 mM) of 0.291, an A540 nm (NAGK enzyme [1]; Arginine 0.31 mM) of 0.259 and an A540 nm (NAGK enzyme [1]; Arginine 0.63 mM) of 0.263. For the same molecule, the A540 nm (NAGK enzyme [1]; Arginine 1.25 mM) was 0.237, the A540 nm (NAGK enzyme [1]; Arginine 2.5 mM) was 0.257 and the A540 nm (NAGK enzyme [1]; Arginine 5 mM) was 0.266. The A540 nm (NAGK enzyme [1]; Arginine 10 mM) was 0.287 and the “effect of arginine on product formation by the NAGK enzyme” value (NAGK enzyme [1]; arginine 0.15 mM to 10 mM) was “insensitive”.

B1: NAGK: arginine-insensitive N-acetyl glutamate kinase (SEQ ID NO:2) from Brevibacillus laterosporus, 6-histidine tagged, E. coli protein extract (protein)
chain: MLHEVMVIKCGGSMLEQLPESFYNKLATLQAEGRSIVIVHGGGPAINQMLEQLKIEPTFSNGLRVTDEPTMQAVEMVLSGPINKLVVRKLLHAGGKAWGLSGVDGSLLQAVEKTQGLGLVGSITVVDQAPLQLLLSNGYIPVVSPIAVSEDGRTRYNCNADTVAGAIASALGAKQLLMLTDVPGIWAENELGEKQLLPTVTTEDIQLMMKNQIITGGMIPKVQAALDALAQGVQEVVICKGEAETLDGVVKGMAVGTSISAEMSRGQDSQAFISNKV
modifications: Zea mays
B1 was tested, and the “lowest concentration of NAGK protein extract that generated an absorbance product at 540 nm” value (NAGK enzyme [2]) was 1 ng/mL, the A540 nm (NAGK enzyme [2]; NAGK 1 ng/mL) was 0.001 and the A540 nm (NAGK enzyme [2]; NAGK 3.9 ng/mL) was 0.002. The A540 nm (NAGK enzyme [2]; NAGK 15.6 ng/mL) was 0.039, the A540 nm (NAGK enzyme [2]; NAGK 62.5 ng/mL) was 0.0159 and the A540 nm (NAGK enzyme [2]; NAGK 250 ng/mL) was 0.518. It also gave an A540 nm (NAGK enzyme [2]; NAGK 1000 ng/mL) of 0.872, an A540 nm (NAGK enzyme [3]; NAG 1.6 mM) of 0.07 and an A540 nm (NAGK enzyme [3]; NAG 3.1 mM) of 0.13. The A540 nm (NAGK enzyme [3]; NAG 6.3 mM) was 0.0212, the A540 nm (NAGK enzyme [3]; NAG 12.5 mM) was 0.313 and the A540 nm (NAGK enzyme [3]; NAG 25 mM) was 0.411. The A540 nm (NAGK enzyme [3]; NAG 50 mM) was 0.515 and the A540 nm (NAGK enzyme [3]; NAG 100 mM) was 0.57.
